From the supplement of paper PMC12764529
± gives the half width of the 95% confidence interval.

Tests used:
[1] = folding stability dG unfold from trypsin proteolysis; higher = more stable
How it was run: (§1)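 Only designs with AlphaFold2 dimer inter-PAE above 15 were retained; each was a mini-protein under 80 residues with no cysteine, in a PA-tagged cDNA display construct. After digestion with trypsin and chymotrypsin and sequencing, K50 was inferred by Bayesian fitting of counts, and unfolding free energy was derived per protease or combined against a sequence-predicted unfolded-state K50 and a shared folded-state K50.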

[2] = folding stability dG unfold from chymotrypsin proteolysis; higher = more stable
How it was run: as §1

[3] = folding stability dG unfold (combined trypsin and chymotrypsin); higher = more stable
How it was run: as §1

Sequence | folding stability dG unfold [1] [kcal/mol] | folding stability dG unfold [2] [kcal/mol] | folding stability dG unfold [3] [kcal/mol]
SAGGMVQISVTEIDPETGLITIEMKFPKGVDDPAKIAAAKAEAEAFAQELEKKLGLPVKVTFTPLPESAGGS [r16_304_JUSTAS] | 1.95 ± 0.037 | 1.9 ± 0.039 | 1.93 ± 0.043
SAIRIEEITIDPEYGVITITFDYPMPPGAEKIKFKIFIDGFKIKEIEYEVDPENGWVRMTLTIRIPKDASAG [r14_244_TrROS] | 4.09 ± 0.28 | 6.5 ± 0.44 | > 6
SAGGSAGGSAGEVVRVYPTPDGTTVTITPHPTTYTVTTTSPDGVPTTTPVSPAEVAALGLSAGGSAGGSAGG [r17_127_JUSTAS] | -0.0385 ± 0.09 | -0.25 ± 0.3 | -0.0994 ± 0.2
SWQIKEVFPLPNGMRIKVYIHPDGYVQVSIRMYRPNPNDGKPQRQRFSITVPLPPGKPPSIDDILDYILNSA [r9_614_TrROS] | 2.36 ± 0.051 | 2.24 ± 0.21 | 2.44 ± 0.22
SAGGSAGGSAGGSSKNRPLVIIDYPFYTSNPDYIVRATFINYLDENNNITEVKVEVLKASAGGSAGGSAGGS [r4_75_TrMRF] | 2.3 ± 0.22 | 3.14 ± 0.095 | 2.59 ± 0.27
SAGKIKVYYDPKLGRIIEIPLPNGKRIRIYLPKNKLIIVAEDPEGNKAIPIEIETKIGDIIKIIKEIAGSAG [r5_820_TrMRF] | 2.9 ± 0.075 | 3.57 ± 0.11 | 3.16 ± 0.18
SAGGYVRIRIELQEKRKPPDGKQQQRKKKITITVRLPPNEEMRMPDGKDIDPGKSAEELADYALDNLSAGGS [r16_440_TrROS] | 2.16 ± 0.08 | 1.68 ± 0.077 | 1.92 ± 0.15
SAGGSAGGSADEPETTTTTTTTTTTKKPAPPAPPKTITLDVEVNGKTLRLTFTSKEALDALSAGGSAGGSAG [r3_426_TrROS_Hall] | 0.931 ± 0.021 | 0.945 ± 0.1 | 1.03 ± 0.15
SAGGSAGGSAGPVKTVEVEIPGMSEEELLALLPPGVKRVEIEREEVEPGRVRLRIKVYEESAGGSAGGSAGG [r11_1002_TrROS_Hall] | 0.307 ± 0.062 | 1.3 ± 0.051 | 0.977 ± 0.059
SAGGDPVRIFIMSGNGIFPIEIPLDPGEKVEFEMKFNGQEVTITITPGDGEIEIEMPPGFNIMALEPSAGGS [r16_761_TrROS] | 1.59 ± 0.086 | 2.05 ± 0.038 | 1.89 ± 0.11
SAGGSAGGSGIEELKKAGFEIVRIERKEDGTLRLTVRNKETEETKTIEITLPEAEVELVEPPESAGGSAGGS [r12_166_TrROS_Hall] | 3.36 ± 0.11 | 3.74 ± 0.076 | 3.57 ± 0.093
SAGGSAGGSDTIVVTLPDGTKITYDKENNEVYVYNLKTKKKIKFPKNMSLEEVLKAIKKLKKPSAGGSAGGS [r12_832_TrROS_Hall] | 2 ± 0.07 | 2.982 ± 0.026 | 2.71 ± 0.082
SAGGAEELAKALADELRKLFPGEEIEVTVELVEVEVEPGQKVTLPDGSTVEVPPGAKVLVLKITVKPSAGGS [r16_357_TrROS_Hall] | 3.13 ± 0.16 | 3.56 ± 0.13 | 3.44 ± 0.14
SAGGSMVKLKVTSVSREGNYLTVTAELGNLIVEIRFDEGTDRFEVKVSEKPLVLGEEEIEELAKASSAGGSA [r2_482_TrMRF] | 1.52 ± 0.064 | 2.38 ± 0.043 | 2.08 ± 0.072
SAGGSAGGSASKDDKIVKVKVFTIKLKPNLEGLPKKVRELLEKLGIKEIKITFVSVFNPEDFSAGGSAGGSA [r18_127_TrMRF] | 3.23 ± 0.2 | 4.34 ± 0.14 | 3.93 ± 0.17
SAGGGLANLSLEEIRQLLLEKFPELPVEVKVTPVDEKDGVVLVTVRPPLPDGSTVESEEELPLEPGLSAGGS [r16_564_JUSTAS] | 0.661 ± 0.025 | -1.28 ± 0.41 | 0.229 ± 0.074
SAGAVEKLRKELEELGYEVELEEVEDEETGKTYFILRIRNPDGEIYEIKVDKKTGEIVEIFKVDNLEELSAG [r5_938_TrROS_Hall] | 3.83 ± 0.17 | 4.17 ± 0.064 | 4.14 ± 0.19
SAGGSAGGSAGGEEPVTFMVRIPIRRRDPDGNPEPVAEIDINVTMPPEDAERIIKELIKSAGGSAGGSAGGS [r10_574_TrROS] | -0.245 ± 0.34 | -0.547 ± 0.76 | -0.326 ± 0.22
SAGGSAGGSAWGWISFNFEFLMFNPDGMFMPFRMQIDIRVEVKPEPKPKPKPKRDPNGKWKSAGGSAGGSAG [r3_252_TrROS] | 1.91 ± 0.034 | 2.8 ± 0.082 | 2.65 ± 0.15
SAGGSAGGSAGKVIKLEELKKKFPNMSPEELAAFFKKLGYKVEVVKVGDVPYVFLSPGEKSAGGSAGGSAGG [r11_707_TrMRF] | 2.2 ± 0.065 | 3.676 ± 0.02 | 3.33 ± 0.049
SAGKIKPGQKIKIKITSIEKLKDGTIKIKAEIELEEKGYKITIEAEIKYDKKTKKLTIKVKIKIEPKPSAGG [r19_342_TrROS_Hall] | 3.26 ± 0.14 | 4.14 ± 0.18 | 3.88 ± 0.24
